Assay results taken from the supplement of paper PMC12764529.
± gives the half width of the 95% confidence interval.

Experiments:
[1] = folding stability dG unfold from trypsin proteolysis; higher = more stable
Procedure, shortened: (§1)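 How resistant each design was to proteolysis was captured as K50, inferred by Bayesian fitting of sequencing counts. Unfolding free energy was then derived relative to a sequence-predicted unfolded-state K50 and a shared folded-state K50, per protease or combined. Digestion used trypsin and chymotrypsin at 11 threefold-diluted concentrations plus a no-protease condition, on mini-proteins under 80 residues without cysteine in a PA-tagged cDNA display construct. Designs were kept only when AlphaFold2 dimer inter-PAE was above 15.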

[2] = folding stability dG unfold from chymotrypsin proteolysis; higher = more stable
Procedure, shortened: as §1

[3] = folding stability dG unfold (combined trypsin and chymotrypsin); higher = more stable
Procedure, shortened: as §1

| Sequence | folding stability dG unfold [1] [kcal/mol] | folding stability dG unfold [2] [kcal/mol] | folding stability dG unfold [3] [kcal/mol] |
| --- | --- | --- | --- |
| MKIEIEIEREEDRVIVRIKIERKDGKEIELELEVPSLEEALEAIEKILASLPPEEVKIVEIEIYNADGEKIS [r1_169_TrROS_Hall] | 2.53 ± 0.14 | 1.85 ± 0.086 | 2.21 ± 0.2 |
| MKIIDVVPTPDGLIVVIKVVFPNTEEAYVSASDLDKLIKEIFERFGVKPEYLKITDIKAFSPEELKEFLEES [r1_119_TrMRF] | 2.37 ± 0.072 | 2.98 ± 0.031 | 2.78 ± 0.075 |
| MKKKVTISIKRKSEVKYTKFPNGEVVPVEDLGGLTVTIEVPESELEELLKKLDIPEDEIEEITVTITPEASS [r1_351_JUSTAS] | 1.08 ± 0.18 | -0.175 ± 0.8 | 0.648 ± 0.42 |
| MKLLKITITITVTRQFPTVPVTSTTTITLEYTTPPDDPAAIEEAKKTAEEIAKKLGATDVTVTTEEVVLESS [r1_346_JUSTAS] | 3.34 ± 0.11 | 4.08 ± 0.057 | 3.84 ± 0.11 |
| MKPIPAEEIRDLAQKLGLPLPPGQIQIKVRHNNKKKTFPIPAGDPITIDDIVENMQQQNPNIKDIEIVIHPS [r1_135_TrROS] | -0.754 ± 0.53 | -0.389 ± 0.28 | < -1 |
| MKVEIVEVEYDEETKRVRVKLKVDGKLVEIEFDLESGKVTVRIYEDGEEIEIEAESVEDALEKAKELVKEKS [r1_177_TrROS_Hall] | 2.02 ± 0.2 | 1.69 ± 0.12 | 1.93 ± 0.28 |
| MLVVEVPAEELSPEQVRERIRAALRAAREAGIRDARIVIVVEASEEQRERLRRELRELAEEEGLEVEIVERS [r1_387_TrROS_Hall] | 4.83 ± 0.17 | 5.52 ± 0.2 | 5.34 ± 0.18 |
| MMLIIKVKNKKTGKTETIKIDMSVEEIKNAIKELKKKNPNAKVTIIGVKTEEVRKALKEAGIEKIEVKPLPS [r1_114_TrROS_Hall] | 3.01 ± 0.23 | 3.5 ± 0.22 | 3.51 ± 0.31 |
| MMYLIRVTVYDEETEEEVEEIEILIELSEEELKNMSEEEREKLLEEALKKAEELAKEYPNLKIEVEIVELPS [r1_115_TrROS_Hall] | 3.52 ± 0.13 | 4.01 ± 0.09 | 3.83 ± 0.14 |
| MNIKVTSVLPDGTVVVTAEAPLPDGSSIRVTAARRGKDSYVLVTVNVYPTKVVADIKEVAPVSPGSPEEGGS [r1_53_TrMRF] | 2.21 ± 0.085 | 3.3 ± 0.12 | 2.88 ± 0.12 |
| MPARVEARRIPDEPRLEVVVDFPGYRVVVRVDEGGRVEVEVVWEENVGPEERAAAEEAAEAFAREVAEALGS [r1_468_TrMRF] | 0.401 ± 0.19 | 1.05 ± 0.039 | 0.839 ± 0.099 |
| MPLGLESERYPNGAPTIESVEVPEDGSVKITLYFPETGEKVEYTLPPNIPPGTEYEIDLPGPTGTGRLRLGS [r1_43_TrMRF] | -0.204 ± 0.2 | 1.65 ± 0.15 | 1.27 ± 0.2 |
| MPNLKPALLVIPMKVESIEEAEEKVLAFAEELAEAFPNIKKIEVEILEIDEENGIVIAKITVEAEDSALDAS [r1_52_TrMRF] | 2.12 ± 0.1 | 2.34 ± 0.051 | 2.13 ± 0.19 |
| MRIEIRVEKVEDGFYKVTIRLEETGETLELVVPKSLEEAKAAAEELLRELFPDVKVTEIRVERVPLPEEDLS [r1_80_TrROS_Hall] | 3.03 ± 0.077 | 2.77 ± 0.063 | 2.9 ± 0.07 |
| MRVVFEATYTDPEGVPVTETFVIPEEVLEEIEREGRPITREELVELAEEIIRDYTKEHDADVEFRFVEFEPS [r1_174_TrMRF] | 1.91 ± 0.086 | 2.52 ± 0.025 | 2.27 ± 0.1 |
| MSEEELRELEERLAAPGPVEVRVEVEVREEEGDEPVFVFRVRYYRPEPGEELGEEEIVVPEEELEELLRELS [r1_415_TrMRF] | 1.34 ± 0.065 | 2.31 ± 0.086 | 1.93 ± 0.15 |
| MTEEEVRAEAEARARALAEERGVEITAVDIDGEVEQVVETTTRPTPDGRPVTETTSKKIKTKVRATLRPPRS [r1_91_JUSTAS] | -0.107 ± 0.27 | 1.39 ± 0.053 | 1.09 ± 0.14 |
| MTIVIDTPVPPEEAEALLRELAEELGYSPELMEVEERVFSEGEDGRPYVTLTVRLPGLGVTITLRLPPDAAS [r1_21_JUSTAS] | 3.61 ± 0.11 | 3.681 ± 0.02 | 3.66 ± 0.041 |
